Test results published in the Human Domainome abundance scans (Beltran et al. 2025).

B1: RUN and FYVE domain-containing protein 1, residues 639 to 698; numbered along this chain, Q96T51 (parent)
chain: WLKDDEATHCRQCEKEFSISRRKHHCRNCGHIFCNTCSSNELALPSYPKPVRVCDSCHTL

Variants of: B1
Assay: abundance fitness (aPCA) (normalised: wild type 0, dead -1); higher = more abundant; growth selection in yeast, the domain comes from the species named
Conditions: Homo sapiens

Abundance fitness of substitutions, site by site:
N40: R 0.153, G -0.03, Y -0.906, D -0.382, M -0.021, E -0.172, W -0.85, H -0.067, K 0.078, Q -0.001, P -0.387, T -0.08, S -0.004, L -0.424, A -0.163, C -0.933, I -0.223
S38: D -0.665, C -0.029, T -0.057, V -0.008, I -0.38, R -0.122, W -0.282, K -0.589, H -0.545, A 0.124, M -0.425, G -0.067, Y -0.633, F -0.594, E -0.954, P -0.727, Q -0.432
E41: T -0.11, Y -0.126, M -0.134, L -0.18, C -0.11, Q -0.056, P -0.418, R -0.151, I -0.335, D -0.173, K -0.038, N -0.184, S -0.155, W -0.384, V -0.063, G -0.522, A -0.182, H -0.195
S46: P 0.069, D 0.365, W 0.077, V -0.265, K 0.181, F -0.01, A 0.16, R 0.19, M 0.086, N 0.252, H -0.004, Y -0.2, L 0.151, G 0.243, E 0.402, C -0.133, Q 0.009
V51: E -0.301, K -0.636, W -0.535, Q -0.17, A -0.047, N -0.695, T 0.184, F -0.571, S -0.345, I -0.249, C -1.01, H -0.945, M -0.244, G -0.55, Y -0.562, R -0.474, L -0.353, D -0.879, P -0.403
T36: S 0.214, W 0.168, N 0.276, Y 0.177, P 0.202, K 0.254, H 0.287, F 0.208, L 0.3, I 0.083, R 0.351, V 0.342, Q 0.403, G 0.444
S56: G 0.3, K 0.232, C 0.03, Q 0.319, A 0.21, F 0.271, H 0.355, P 0.24, M 0.165, I 0.136, T 0.284, W 0.033, E 0.331, Y 0.188, D 0.097, N 0.246
C37: I -0.825, N -0.282, P -0.537, A -0.326, L -0.719, M -0.567, G -0.471, Y -0.615, R -0.553, F -0.649, H -0.325, S -0.568, K -0.658, Q -0.557, T -0.627
L44: P -0.326, G -0.166, M -0.077, C -0.389, W -0.375, Y -0.271, V -0.236, S -0.454, D 0.138, T -0.127, R -0.445, F -0.196, K -0.384, N -0.388, A -0.3, H -0.295, E -0.376, Q -0.3
D55: T -0.602, Y -0.31
P50: F -0.211, I -0.807, S -0.253, M -0.162, R -0.185, W -0.549, D -0.295, T -0.233, L -0.085, N -0.043, H -0.347, V -0.074, G -0.118, E -0.078, C -0.128, Q -0.219, K 0.023, A 0.05, Y -0.219
T59: I -0.033, G 0.161, L -0.048, A 0.263, M 0.019, C -0.051, E 0.026, K 0.144, D 0.062, H -0.148, F -0.207
C54: R -0.278, G -0.731, Y -0.845
C57: A -0.756, T -0.467, H -0.957, W -0.682, K -0.613, L -0.475, S -0.716, R -0.673, Y -0.828, D -0.619, G -0.53, F -0.794, V -0.665, Q -0.409, I -0.88, P -0.697, E -0.711
S39: C -1.14, L -0.102, T 0.084, E 0.079, D 0.128, Y -0.428, Q 0.091, I -0.229, W -0.657, R -0.011, N -0.036, P -0.251, A 0.14, F -0.305, H -0.421, G 0.185
P45: L -0.19, D -0.035, H -0.022, T 0.047, Q 0.162, G -0.204, N 0.017, M -0.073, Y -0.425, K 0.091, E -0.081, V -0.13, C -0.325, S 0.027, I -0.162, R 0.009, A -0.277
L42: V 0.092, G -0.026, Q 0.295, F 0.034, H 0.118, W -0.014, Y -0.151, I 0.214, T -0.071, P -0.606, N -0.317, S 0.096, R 0.227, M -0.046, A 0.11, C 0.045, D 0.184
V53: I -0.385
H58: W 0.022, D -0.495, L -0.114, K -0.091, C -0.365, F -0.105, A -0.1, V 0.037, P -0.667, I -0.157, N -0.242, G -0.203, M -0.109, Q 0.065, T -0.226, R -0.147, S -0.179, E -0.062
A43: Y -0.366, R -0.054, K -0.071, M 0.021, I 0.019, S -0.188, T -0.045, C -0.128, N 0.034, L 0.058, Q -0.008, V 0.008, P 0.001, W -0.405, G -0.124
Y47: W -0.382, H 0.09, A 0.014, N 0.019, D 0, M -0.134, E -0.062, I -0.197, K -0.262, P -0.433, V -0.026, Q -0.14, L -0.069, R -0.345, F -0.05, G -0.045, S -0.081
K49: T -0.212, R 0.016, C -0.133, W -0.327, I -0.32, G -0.057, Q -0.192, A -0.327, D -0.001, V -0.14, S -0.09, F -0.342, Y -0.34, H -0.11, E -0.083, M -0.298, P -0.72, N 0.012
P48: H -0.192, W -0.484, K -0.178, R -0.308, N -0.324, F -0.818, M -0.309, Y -0.582, E 0.118, I -0.419, Q -0.051, A -0.167
